# Reference: patent publication US20210198377A1 (XDCEXPLORER SHANGHAI, published 2021)
# Like-named read-outs stand apart in the source and are kept apart here.
# T1: human TPBG (full length, on cells) (human, UniProt Q13641 32-420)
# T1 sequence (looked up): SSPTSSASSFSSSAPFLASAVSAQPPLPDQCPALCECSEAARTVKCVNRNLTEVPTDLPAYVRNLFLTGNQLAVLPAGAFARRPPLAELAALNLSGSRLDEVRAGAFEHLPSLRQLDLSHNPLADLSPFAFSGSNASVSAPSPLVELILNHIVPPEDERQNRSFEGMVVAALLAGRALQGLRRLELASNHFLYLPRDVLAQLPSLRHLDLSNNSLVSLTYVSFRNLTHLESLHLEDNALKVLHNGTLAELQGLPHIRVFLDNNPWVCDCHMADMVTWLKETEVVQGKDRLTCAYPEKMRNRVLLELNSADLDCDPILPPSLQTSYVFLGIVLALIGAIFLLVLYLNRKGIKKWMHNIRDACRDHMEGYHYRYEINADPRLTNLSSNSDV
# T2: mouse TPBG (full length, on cells) (mouse, UniProt Q9Z0L0 32-426)
# T2 construct: whole, on cells; On transfected CHO-K1 cells; also called mTPBG; CHO-K1-mTPBG
# T2 sequence (looked up): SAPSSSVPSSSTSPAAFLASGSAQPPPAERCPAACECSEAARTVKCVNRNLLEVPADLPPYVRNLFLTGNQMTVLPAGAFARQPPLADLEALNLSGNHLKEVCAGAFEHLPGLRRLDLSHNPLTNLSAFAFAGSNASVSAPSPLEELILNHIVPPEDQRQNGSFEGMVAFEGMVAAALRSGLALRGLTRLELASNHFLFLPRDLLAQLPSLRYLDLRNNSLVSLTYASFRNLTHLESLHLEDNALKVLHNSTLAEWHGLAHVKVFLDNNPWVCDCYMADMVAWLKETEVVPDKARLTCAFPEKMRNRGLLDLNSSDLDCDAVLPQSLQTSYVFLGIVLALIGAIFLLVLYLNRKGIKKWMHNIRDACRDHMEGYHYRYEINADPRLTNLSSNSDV
# T3: human TPBG-hFc (human, UniProt Q13641 32-355)
# T3 construct: also called immunogen A; hFc tagged TPBG protein; not shown: The human IgG Fc fragment of the pCpC vector (Invitrogen V044-50) and any linker to it
# T3 sequence: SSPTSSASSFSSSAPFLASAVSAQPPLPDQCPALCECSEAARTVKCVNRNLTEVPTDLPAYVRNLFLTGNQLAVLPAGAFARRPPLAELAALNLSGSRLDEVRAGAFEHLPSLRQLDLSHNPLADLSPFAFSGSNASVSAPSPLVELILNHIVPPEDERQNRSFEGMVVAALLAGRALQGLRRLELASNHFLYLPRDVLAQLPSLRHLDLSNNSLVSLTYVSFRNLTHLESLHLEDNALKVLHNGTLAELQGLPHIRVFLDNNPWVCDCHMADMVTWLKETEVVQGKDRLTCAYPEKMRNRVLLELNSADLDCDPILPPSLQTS
# Experiments:
# [1] = molecular target: T1, human TPBG (full length, on cells); experiment: cell-based or functional assay
# [2] = molecular target: T2, mouse TPBG (full length, on cells); experiment: FACS on CHO-k1-mTPBG 3A3 cells
# [3] = molecular target: T1, human TPBG (full length, on cells); experiment: FACS on CHO-k1-hTPBG 3A2F1 cells
# [4] = molecular target: T1, human TPBG (full length, on cells); experiment: FACS, HEK293 clone 293F-hTPBG 4A8
# [5] = molecular target: T1, human TPBG (full length, on cells); experiment: FACS, HEK293 clone 293F-hTPBG 4A9
# [6] = molecular target: T1, human TPBG (full length, on cells); experiment: FACS, HEK293 clone 293F-hTPBG 4B9
# [7] = molecular target: T1, human TPBG (full length, on cells); experiment: FACS, HEK293 clone 293F-hTPBG 4C3
# [8] = molecular target: T1, human TPBG (full length, on cells); experiment: FACS, HEK293 clone 293F-hTPBG 4C5
# [9] = molecular target: T1, human TPBG (full length, on cells); experiment: FACS, HEK293 clone 293F-hTPBG 4E1
# [10] = molecular target: T1, human TPBG (full length, on cells); experiment: FACS, HEK293 clone 293F-hTPBG 4F9
# [11] = molecular target: T1, human TPBG (full length, on cells); experiment: FACS, HEK293 clone 293F-hTPBG 4G1
# [12] = molecular target: T1, human TPBG (full length, on cells); experiment: FACS, HEK293 clone 293F-hTPBG 4G6
# [13] = molecular target: T1, human TPBG (full length, on cells); experiment: FACS, HEK293 clone 293F-hTPBG 5A9
# [14] = molecular target: T1, human TPBG (full length, on cells); experiment: FACS, HEK293 clone 293F-hTPBG 5D4
# [15] = molecular target: T1, human TPBG (full length, on cells); experiment: FACS, HEK293 clone 293F-hTPBG 5E5
# [16] = molecular target: T1, human TPBG (full length, on cells); experiment: FACS, HEK293 clone 293F-hTPBG 5E6
# [17] = molecular target: T1, human TPBG (full length, on cells); experiment: FACS, HEK293 clone 293F-hTPBG 5G8
# [18] = molecular target: T1, human TPBG (full length, on cells); experiment: FACS, HEK293 clone 293F-hTPBG 5H6
# [19] = molecular target: cynomolgus monkey TPBG (full length, on cells) (cynomolgus monkey) (UniProt Q4R8Y9); experiment: FACS on CHO-k1-cTPBG 3F13G4 cells
# [20] = molecular target: T1, human TPBG (full length, on cells); experiment: FACS, HEK293 clone 293F-hTPBG 4H12
# [21] = molecular target: T1, human TPBG (full length, on cells); experiment: FACS, HEK293 clone 293F-hTPBG 5A11
# [22] = molecular target: T1, human TPBG (full length, on cells); experiment: FACS, HEK293 clone 293F-hTPBG 5C12
# [23] = molecular target: T1, human TPBG (full length, on cells); experiment: FACS, HEK293 clone 293F-hTPBG 5G11
# [24] = molecular target: T1, human TPBG (full length, on cells); experiment: FACS, HEK293 clone 293F-hTPBG 4E1 (NO. 8)
# human TPBG-hFc [25] = molecular target: T3, human TPBG-hFc; experiment: ELISA, coated human TPBG-hFc 1.0 ug/mL; control IgG 2 nM
# human TPBG-hFc [26] = molecular target: T3, human TPBG-hFc; experiment: ELISA, coated human TPBG-hFc 1.0 ug/mL; control IgG 20 nM
# human TPBG-hFc [27] = molecular target: T3, human TPBG-hFc; experiment: ELISA, coated human TPBG-hFc 1.0 ug/mL; control IgG 0.2 nM
# human TPBG-hFc [28] = molecular target: T3, human TPBG-hFc; experiment: ELISA, coated human TPBG-hFc 1.0 ug/mL; control IgG 200 nM
# human TPBG-hFc [29] = molecular target: T3, human TPBG-hFc; experiment: ELISA, coated human TPBG-hFc 1.0 ug/mL; control IgG 0.02 nM
# human TPBG-hFc [30] = molecular target: T3, human TPBG-hFc; experiment: ELISA, coated human TPBG-hFc 1.0 ug/mL; control IgG 0.002 nM
# human TPBG-hFc [31] = molecular target: T3, human TPBG-hFc; experiment: ELISA, coated human TPBG-hFc 1.0 ug/mL; control IgG 0.0002 nM
# [32] = molecular target: T1, human TPBG (full length, on cells); experiment: FACS, HEK293 cell strain 5E5E9 transfected with human TPBG
# [33] = molecular target: T1, human TPBG (full length, on cells); experiment: cell-based or functional assay; remark: listed apart in the source
# [34] = molecular target: T1, human TPBG (full length, on cells); experiment: cell-based or functional assay; remark: listed apart in the source
# [35] = molecular target: T1, human TPBG (full length, on cells); experiment: cell-based or functional assay; remark: listed apart in the source
Molecule,MFI [2] [MFI],MFI [3] [MFI],MFI [4] [MFI],MFI [5] [MFI],MFI [6] [MFI],MFI [7] [MFI],MFI [8] [MFI],MFI [9] [MFI],MFI [10] [MFI],MFI [11] [MFI],MFI [12] [MFI],MFI [13] [MFI],MFI [14] [MFI],MFI [15] [MFI],MFI [16] [MFI],MFI [17] [MFI],MFI [18] [MFI],MFI [19] [MFI],MFI [20] [MFI],MFI [21] [MFI],further results
Control hIgG-MMAF (antibody),,,,,,,,,,,,,,,,,,,,,IC50 of cytotoxicity on TPBG-positive NCI-H1299 cells (CellTiter-Glo) [1]: > 100 nM
mouse IgG control (antibody),2.38,3.24,3.1,6.3,6.3,3.2,5.6,5.2,3.9,4,3.1,5,3,5.6,2.6,6,3,2.66,4,4.6,MFI [22]: 3.7 MFI; MFI [23]: 4.1 MFI; MFI [24]: 4.8 MFI; OD450nm (human TPBG-hFc [25]): 0.1 OD450nm; OD450nm (human TPBG-hFc [26]): 0.11 OD450nm; OD450nm (human TPBG-hFc [27]): 0.11 OD450nm; OD450nm (human TPBG-hFc [28]): 0.24 OD450nm; OD450nm (human TPBG-hFc [29]): 0.1 OD450nm; OD450nm (human TPBG-hFc [30]): 0.1 OD450nm; OD450nm (human TPBG-hFc [31]): 0.11 OD450nm
"commercial available TPBG antibody (purchased from Sigma, Lot NO: SAB1404485)",135,798,33.4,204,126,27.2,172,145,47.7,131,31.8,53.2,70.6,280,13.2,168,36.4,198,9.5,166,MFI [22]: 75.4 MFI; MFI [23]: 11.3 MFI; MFI [24]: 91.8 MFI; MFI [32]: 216 MFI; percentage of TPBG-positive cells [32]: 98.5%
"Chimeric Antibody 12B12-MMAF (antibody, human IgG1, DAR 3, V domains shown, MC-MMAF on cysteines after TCEP reduction, sites not stated) VH: DVQLVESGGGLVQPGGSRKLSCAASGFTFSNFGMHWVRQAPEKGLEWVAYISSGSTSFYYADTVKGRFTISRDNPKNTLFLQMTSLRSEDTAMYYCSRTNSLLRGFFDAWGAGTTVTVSS VL: DIVLTQSPASLAVSLGQRATISCRASQSVSSSSYTYLHWYQQKPGQPPKLLIKSASNLESGVPARFSGTGSGTDFTLNIHPVEEEDTATYYCQHSWEIPLTFGAGTKLELK",,,,,,,,,,,,,,,,,,,,,IC50 of cytotoxicity on TPBG-positive NCI-H1299 cells (CellTiter-Glo) [33]: 0.13 nM; IC50 of cytotoxicity on TPBG-positive NCI-H1299 cells (CellTiter-Glo) [34]: 0.04 nM; IC50 of cytotoxicity on TPBG-positive NCI-H1568 cells (CellTiter-Glo) [34]: 0.025 nM; IC50 of cytotoxicity on recombinant 293-hTPBG cells (CellTiter-Glo) [35]: 0.001 nM
"Chimeric Antibody 28D4-MMAF (antibody, human IgG1, DAR 3, V domains shown, MC-MMAF on cysteines after TCEP reduction, sites not stated) VH: DVQLVESGGGLVRPGGSLKLSCAASGFTFSNYVMSWARQSPEKRLEWVAEISTGGSHTYYSDTVTGRFTISRDNAKKALYLEMSSLRSEDTAIYYCIMFYYGSSYSMDYWGQGTSVTVSS VL: DIQMTQSTSSLSASLGDRITISCRASQDIRNYLNWYQQKPDGTVKLLIYHTSRLHSGVPSRFSGSGSGTDYSLTISNLEQEDIATYFCQQGDTLPLTFGAGTRLELK",,,,,,,,,,,,,,,,,,,,,IC50 of cytotoxicity on TPBG-positive NCI-H1299 cells (CellTiter-Glo) [33]: 0.21 nM; IC50 of cytotoxicity on TPBG-positive NCI-H1299 cells (CellTiter-Glo) [34]: 0.132 nM; IC50 of cytotoxicity on TPBG-positive NCI-H1568 cells (CellTiter-Glo) [34]: 0.066 nM; IC50 of cytotoxicity on recombinant 293-hTPBG cells (CellTiter-Glo) [35]: 0.024 nM
